Residue numbers refer to the chain shown, from its start. Like-named read-outs stand apart in the source and are kept apart here. Each block holds one binder with its values, some of them ahead of it.
What was measured:
[1] = target: T1, cynomolgus monkey NPR1 full-length protein overexpressed on CHO-K1 cells (cynomolgus monkey); assay: flow cytometry on cNPR1-expressing CHO-K1 cells, without ANP
T1 construct: whole, on cells; also called cNPR1-CHOK1; cNPR1 CHO-K1

[2] = target: T2, human NPR1 full-length protein overexpressed on CHO-K1 cells (human, UniProt P16066 33-1061); assay: flow cytometry on hNPR1-expressing CHO-K1 cells, antibody pre-mixed with 10 nM ANP
T2 construct: also called hNPR1-CHOK1; hNPR1 CHO-K1
T2 sequence: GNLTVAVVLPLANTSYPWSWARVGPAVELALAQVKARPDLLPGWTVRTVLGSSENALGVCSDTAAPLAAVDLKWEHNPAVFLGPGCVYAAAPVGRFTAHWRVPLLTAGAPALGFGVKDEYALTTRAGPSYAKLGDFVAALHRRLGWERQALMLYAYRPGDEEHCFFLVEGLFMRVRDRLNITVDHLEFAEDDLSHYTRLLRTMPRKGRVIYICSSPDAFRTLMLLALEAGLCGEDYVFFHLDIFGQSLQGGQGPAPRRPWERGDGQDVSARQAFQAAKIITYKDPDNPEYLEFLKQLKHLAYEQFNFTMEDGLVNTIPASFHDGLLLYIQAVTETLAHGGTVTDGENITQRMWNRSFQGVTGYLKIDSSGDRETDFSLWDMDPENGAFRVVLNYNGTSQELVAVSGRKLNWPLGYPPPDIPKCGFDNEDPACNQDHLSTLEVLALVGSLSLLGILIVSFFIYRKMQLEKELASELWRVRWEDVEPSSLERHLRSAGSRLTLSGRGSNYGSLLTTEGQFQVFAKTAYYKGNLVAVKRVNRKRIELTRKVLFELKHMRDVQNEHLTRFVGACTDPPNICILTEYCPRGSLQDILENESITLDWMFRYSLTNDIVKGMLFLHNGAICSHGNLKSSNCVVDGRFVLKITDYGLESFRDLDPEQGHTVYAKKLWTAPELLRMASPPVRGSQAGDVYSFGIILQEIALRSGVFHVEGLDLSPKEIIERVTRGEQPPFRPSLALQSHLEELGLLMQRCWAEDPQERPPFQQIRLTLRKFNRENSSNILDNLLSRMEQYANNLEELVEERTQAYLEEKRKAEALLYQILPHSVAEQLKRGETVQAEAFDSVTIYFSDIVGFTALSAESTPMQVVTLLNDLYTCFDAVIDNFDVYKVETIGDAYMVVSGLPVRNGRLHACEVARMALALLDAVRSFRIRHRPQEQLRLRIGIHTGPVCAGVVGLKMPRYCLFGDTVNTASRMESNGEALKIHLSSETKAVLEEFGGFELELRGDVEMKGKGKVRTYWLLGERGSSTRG

[3] = target: T1, cynomolgus monkey NPR1 full-length …; assay: flow cytometry on cNPR1-expressing CHO-K1 cells, antibody pre-mixed with 10 nM ANP
[4] = target: T2, human NPR1 full-length protein …; assay: flow cytometry on hNPR1-expressing CHO-K1 cells, without ANP
[5] = target: T2, human NPR1 full-length protein …; assay: cell-based or functional assay
[6] = target: T2, human NPR1 full-length protein …; assay: cell-based or functional assay; remark: listed apart in the source
[7] = target: T2, human NPR1 full-length protein …; assay: cell-based or functional assay; remark: listed apart in the source
hNPR2 = target: T3, hNPR2 (human, UniProt P20594 23-458, limits assumed); assay: ELISA, plate coated with 4 µg/mL antigen
T3 construct: Commercial protein; construct not described; also called hNPR2 antigen
T3 sequence (looked up): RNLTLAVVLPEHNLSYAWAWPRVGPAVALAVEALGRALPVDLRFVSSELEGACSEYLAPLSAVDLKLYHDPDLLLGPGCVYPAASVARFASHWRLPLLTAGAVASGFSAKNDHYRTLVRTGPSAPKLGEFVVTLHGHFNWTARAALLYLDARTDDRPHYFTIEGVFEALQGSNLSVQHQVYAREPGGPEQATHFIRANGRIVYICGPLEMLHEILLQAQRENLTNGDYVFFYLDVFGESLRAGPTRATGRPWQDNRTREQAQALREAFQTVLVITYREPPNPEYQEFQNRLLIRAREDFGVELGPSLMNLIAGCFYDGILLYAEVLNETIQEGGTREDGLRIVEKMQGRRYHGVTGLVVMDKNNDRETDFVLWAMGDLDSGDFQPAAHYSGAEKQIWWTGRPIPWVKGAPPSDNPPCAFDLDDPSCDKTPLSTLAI

[8] = target: T4, fusion protein of the human NPR1 protein extracellular domain and human-IgG1-Fc (human); assay: ELISA, plate coated with 4 µg/mL hNPR1 antigen
T4 construct: also called hNPR1-hFc; hNPR1

[9] = target: T2, human NPR1 full-length protein …; assay: cell-based or functional assay; remark: listed apart in the source
[10] = target: T2, human NPR1 full-length protein …; assay: cell-based or functional assay; remark: listed apart in the source
[11] = target: T2, human NPR1 full-length protein …; assay: cell-based or functional assay; remark: listed apart in the source
[12] = target: T2, human NPR1 full-length protein …; assay: cell-based or functional assay; remark: listed apart in the source

T4 sequence (chain, as listed by the source limits assumed): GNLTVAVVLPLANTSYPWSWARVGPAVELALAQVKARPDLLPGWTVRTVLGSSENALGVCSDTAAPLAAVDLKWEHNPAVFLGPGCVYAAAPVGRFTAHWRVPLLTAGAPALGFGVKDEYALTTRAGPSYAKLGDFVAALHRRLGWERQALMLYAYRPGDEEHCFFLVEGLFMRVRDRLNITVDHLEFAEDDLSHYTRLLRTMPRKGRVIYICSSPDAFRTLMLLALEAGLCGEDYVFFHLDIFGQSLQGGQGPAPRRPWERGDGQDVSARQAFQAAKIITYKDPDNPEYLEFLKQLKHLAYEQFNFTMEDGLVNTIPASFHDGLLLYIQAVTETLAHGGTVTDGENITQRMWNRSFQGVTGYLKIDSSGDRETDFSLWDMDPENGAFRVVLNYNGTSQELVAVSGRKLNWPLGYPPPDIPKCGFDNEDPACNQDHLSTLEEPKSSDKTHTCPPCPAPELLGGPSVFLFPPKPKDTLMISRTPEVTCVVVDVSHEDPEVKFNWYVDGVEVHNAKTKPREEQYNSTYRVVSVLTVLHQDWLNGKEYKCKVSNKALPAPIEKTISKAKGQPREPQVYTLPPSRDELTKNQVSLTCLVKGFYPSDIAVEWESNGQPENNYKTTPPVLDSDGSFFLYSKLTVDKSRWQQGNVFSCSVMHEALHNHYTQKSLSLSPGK

B1: CHI-127 (antibody, human IgG1, kappa, V domains shown)
VH: QAYLQQSGPELVKPGASVKISCKASGYSFTGYFMNWVMQSHGKSLEWIGRINPYNGDTFYNQKFKGKATLTVDKSSSTVHMELRSLASEDSAVYYCARRGYGNRGYWYFDVWGAGTTVTVSS
VL: NIVLTQSPASLAVSLGQRATISCRASESVDSYGNSFMHWYQQKPGQPPKVLIYLASTLESGVPARFSGSGSRTDFTLTIDPVEADDAATYYCQQNNEDPLTFGAGTKLELKR
notes: Chimeric human IgG1/kappa; also called NPR1-CHAb-SFM-127-1; chimeric antibody of murine antibody 127
- EC50 [1]: 1.19 nM
- EC50 [2]: 1.74 nM
- EC50 [3]: 1.28 nM
- EC50 [4]: 1.73 nM
- cGMP production: EC50 [5]: 42.7 nM
- cGMP production: Emax [5]: 0.43
- cGMP production: Emin [5]: 0.077

B2: CHI-135 (antibody, human IgG1, kappa, V domains shown)
VH: DVKLVESGEGLVKPGGSLKLSCVASGFSISTYGMSWVRQTPEKRLEWVAYINSGGNYIYYADTVKGRFTISRDNARNTLYLQMSSLKSEDTAMYYCTRDRTTIVVHWYFDVWGTGTTVTVSS
VL: QIVLTQSPAIMSASPGEKVTMTCSASSSLNFMHWYQQKPGTSPKRWIYDTSKLASGVPARFSGSGSGTSYSLTISSMEAEDAATYYCHQRSSTFGGGTKLELKR
notes: Chimeric human IgG1/kappa; also called NPR1-CHAb-SFM-135; chimeric antibody of murine antibody 135
- EC50 [1]: 3.59 nM
- EC50 [2]: 2.49 nM
- EC50 [3]: 1.63 nM
- EC50 [4]: 4.39 nM

B3: Hu128H3L1-6 (antibody, human IgG1, kappa, L234A L235A, V domains shown)
VH: EVQLVQSGAEVKKPGASVKVSCKASGYTFTSYWMHWVRQAPGQGLEWMGRIDPNSGVTKYNEKFKSRVTLTVDKPSSPAYMELSSLRSEDTAVYYCARSSYLGRYFDVWGQGTTVTVSS
VL: EIVLTQSPATLSLSPGERATLKCSATSSVSYMYWYQQKPGQAPRLLIYDTYNLGSRIPARFSGSGSGTDYTLTISRLEPEDFAVYYCQQWSSYPPTFGQGTKLEIKR
notes: Humanized, human IgG1 LALA/kappa
- Ratio (without ANP) of NPR1 antigens remaining on the cell surface after endocytosis to the initial number, 10 min, 20 µg/mL [6]: 1.3 ratio
- Ratio (without ANP) of NPR1 antigens remaining on the cell surface after endocytosis to the initial number, 1 h, 20 µg/mL [6]: 0.91 ratio
- Ratio (without ANP) of NPR1 antigens remaining on the cell surface after endocytosis to the initial number, 7 hrs, 20 µg/mL [6]: 0.96 ratio
- Ratio (without ANP) of NPR1 antigens remaining on the cell surface after endocytosis to the initial number, 24 hrs, 20 µg/mL [6]: 0.82 ratio
- cGMP production: EC50 [7]: 7.9 nM
- binding result (hNPR2): no binding (tested: 20 µg/mL (highest concentration))
- EC50 [8]: 1.84 nM

B5: Hu128H3L1 (antibody, human IgG1, kappa, L234A L235A, V domains shown)
VH: B3 VH
VL: B3 VL with K22S, G54A
- cGMP production: EC50 [10]: 5.8 nM

B7: Hu128H3L2 (antibody, human IgG1, kappa, L234A L235A, V domains shown)
VH: B3 VH
VL: B3 VL with K22S, Q41S, A42S, G54A
- cGMP production: EC50 [10]: 4.6 nM

B9: Hu102H3L6 (antibody, human IgG1, kappa, L234A L235A, V domains shown)
VH: DVKLVESGEGLVKPGGSLRLSCAASGFTFSTYAMSWVRQAPGKRLEWVAYISRGGDYIYYADTVKGRFTISRDNAKNSLYLQMNSLRAEDTAVYYCTRDQTTVVVHWYFDVWGQGTTVTVSS
VL: DIQLTQSPSSLSASVGDRVTITCSASSSINYMHWYQQKPGKSPKRWIYDTSKLASGVPSRFSGSGSGTDYTLTISSLQPEDFATYYCHQRNSYTFGGGTKVEIKR
- cGMP production: EC50 [12]: 48.5 nM
- cGMP production: Emax [12]: 0.61
- cGMP production: Emin [12]: 0.16

B12: Hu102H4L6 (antibody, human IgG1, kappa, L234A L235A, V domains shown)
VH: B9 VH with T31S, T63S, T91S
VL: B9 VL
notes: Humanized, human IgG1 LALA/kappa; also called Hul02H4L6
- Ratio (without ANP) of NPR1 antigens remaining on the cell surface after endocytosis to the initial number, 10 min, 20 µg/mL [6]: 1.14 ratio
- Ratio (without ANP) of NPR1 antigens remaining on the cell surface after endocytosis to the initial number, 1 h, 20 µg/mL [6]: 0.58 ratio
- Ratio (without ANP) of NPR1 antigens remaining on the cell surface after endocytosis to the initial number, 7 hrs, 20 µg/mL [6]: 0.53 ratio
- Ratio (without ANP) of NPR1 antigens remaining on the cell surface after endocytosis to the initial number, 24 hrs, 20 µg/mL [6]: 0.73 ratio
- binding result (hNPR2): no binding (tested: 20 µg/mL (highest concentration))
- cGMP production: EC50 [12]: 45.9 nM
- cGMP production: Emax [12]: 0.65
- cGMP production: Emin [12]: 0.17
- EC50 [8]: 1.32 nM

Further lines, with some results ahead:

- cGMP production: EC50 [9]: 40.9 nM
B4: Hu140H5L5 (antibody, human IgG1, kappa, L234A L235A, V domains shown)
VH: B3 VH with E1Q, S100G, Y101G, G103R
VL: B3 VL with K22S, T26S, G54A, R56G, I57V, D69S, Q99A

- Ratio (without ANP) of NPR1 antigens remaining on the cell surface after endocytosis to the initial number, 10 min, 20 µg/mL [6]: 1.31 ratio
- Ratio (without ANP) of NPR1 antigens remaining on the cell surface after endocytosis to the initial number, 1 h, 20 µg/mL [6]: 0.86 ratio
- Ratio (without ANP) of NPR1 antigens remaining on the cell surface after endocytosis to the initial number, 7 hrs, 20 µg/mL [6]: 1.11 ratio
- Ratio (without ANP) of NPR1 antigens remaining on the cell surface after endocytosis to the initial number, 24 hrs, 20 µg/mL [6]: 1.02 ratio
- cGMP production: EC50 [9]: 36 nM
- EC50 [8]: 8.65 nM
B6: Hu140H5L5-11 (antibody, human IgG1, kappa, L234A L235A, V domains shown)
VH: B3 VH with E1Q, S100G, Y101G, G103R
VL: B3 VL with T20Q, K22S, T26S, G54A, R56G, I57V, A59D, D69S, Q99A
notes: as for B3
- binding result (hNPR2): no binding (tested: 20 µg/mL (highest concentration))

- Ratio (without ANP) of NPR1 antigens remaining on the cell surface after endocytosis to the initial number, 10 min, 20 µg/mL [6]: 0.85 ratio
- Ratio (without ANP) of NPR1 antigens remaining on the cell surface after endocytosis to the initial number, 1 h, 20 µg/mL [6]: 0.67 ratio
- Ratio (without ANP) of NPR1 antigens remaining on the cell surface after endocytosis to the initial number, 7 hrs, 20 µg/mL [6]: 0.63 ratio
- Ratio (without ANP) of NPR1 antigens remaining on the cell surface after endocytosis to the initial number, 24 hrs, 20 µg/mL [6]: 0.76 ratio
- cGMP production: EC50 [11]: 171 nM
- cGMP production: Emax [11]: 0.43
- cGMP production: Emin [11]: 0.179
- EC50 [8]: 0.02 nM
B8: Hu135H3L1 (antibody, human IgG1, kappa, L234A L235A, V domains shown)
VH: B9 VH with T28S, F29I, A33G, S52N, R53S, D56N, T63S, Q100R, V103I
VL: DIQLTQSPSSLSASVGDRVTITCSASSSLNFMHWYQQKPGKSPKRWIYDTSKLASGVPSRFSGSGSGTDYTLTISSLQPEDFATYYCHQRSSTFGGGTKVEIKR
notes: Humanized, human IgG1 LALA/kappa; also called Hul35H3L1
- binding result (hNPR2): no binding (tested: 20 µg/mL (highest concentration))

- cGMP production: EC50 [11]: 116 nM
- cGMP production: Emax [11]: 0.43
- cGMP production: Emin [11]: 0.22
B10: Hu135H1L1 (antibody, human IgG1, kappa, L234A L235A, V domains shown)
VH: B9 VH with A33G, S52N, R53S, D56N, Q100R, V103I
VL: B8 VL

- cGMP production: EC50 [11]: 186 nM
- cGMP production: Emax [11]: 0.45
- cGMP production: Emin [11]: 0.143
B11: Hu135H2L1 (antibody, human IgG1, kappa, L234A L235A, V domains shown)
VH: B9 VH with T28S, F29I, A33G, S52N, R53S, D56N, Q100R, V103I
VL: B8 VL

From EP4725963A1 (Jiangsu Hengrui Pharmaceuticals Co., Ltd., dated 2026)
